# Source: publication PMC11696352
# Biological target: importin α5 (UniProt P52294)
# Assay: Flag co-IP, immunoblot
# Conditions: reference: Flag-GCLM wild type; sites T17
substance,measurement,value
GCLM (glutamate-cysteine ligase modifier subunit) (from UniProt P48507) Flag-GCLM T17A,binding against the reference,weaker
